The results in this text go back to US20160264960A1 (Chugai, published 2016).

In assay [1] the target is T1, soluble human IL-6R (human, UniProt P08887 20-357).
T1 construct: Analyte in the Octet experiments; also called hIL-6R; soluble hIL-6R
T1 sequence: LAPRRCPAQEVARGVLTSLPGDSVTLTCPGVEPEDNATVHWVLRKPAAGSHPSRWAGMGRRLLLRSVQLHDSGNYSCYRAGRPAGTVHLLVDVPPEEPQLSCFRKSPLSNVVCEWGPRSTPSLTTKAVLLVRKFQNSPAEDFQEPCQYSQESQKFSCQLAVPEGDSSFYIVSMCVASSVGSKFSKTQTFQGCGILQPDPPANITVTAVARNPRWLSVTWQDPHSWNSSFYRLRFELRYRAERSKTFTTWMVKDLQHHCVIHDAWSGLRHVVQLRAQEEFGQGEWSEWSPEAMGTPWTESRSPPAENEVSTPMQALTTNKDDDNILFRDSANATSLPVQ
Put plainly: biolayer interferometry (Octet RED384), antibody on Protein G biosensor, soluble human IL-6R in solution, 120 s association and 120 s dissociation [a]. The method, then: (§1) Each antibody (6RmIAB3(2)_02, 6RmIAB3(2)_06, and 6RmIAB3(2)_16) obtained in the paragraph (6-2) or an anti-mouse IgA antibody mIANMIgL_095 (heavy chain: SEQ ID NO: 41; light chain: SEQ ID NO: 65) was evaluated for its binding activity against soluble human IL-6R and mouse IgA using Octet RED384 (forteBIO). The binding evaluation was conducted using HBS-EP+Buffer (GE Healthcare Japan Corp.) as a buffer.
(§2) After binding of the antibody to Protein G Biosensors (forteBIO), soluble human IL-6R or mouse IgA was allowed to interact with the antibody on the biosensor through contact therebetween for 120 seconds, and subsequently contacted with the buffer for 120 seconds to measure the antibody-antigen interaction. Then, the biosensor was regenerated through contact with 10 mmol/L glycine-HCl (pH 1.5). The measurement was conducted at 30° C.

The target in assay [2] is T2, mouse IgA (mouse, UniProt P01878 114-344).
T2 sequence (looked up): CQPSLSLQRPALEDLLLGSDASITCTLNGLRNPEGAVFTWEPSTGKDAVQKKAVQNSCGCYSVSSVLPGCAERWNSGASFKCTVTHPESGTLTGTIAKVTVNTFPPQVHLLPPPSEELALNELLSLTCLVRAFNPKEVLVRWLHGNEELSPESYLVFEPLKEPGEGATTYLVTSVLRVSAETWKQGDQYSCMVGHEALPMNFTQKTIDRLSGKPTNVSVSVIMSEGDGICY
Put plainly: biolayer interferometry (Octet RED384), antibody on Protein G biosensor, mouse IgA in solution; antigen concentration not given [a]. The procedure:
as §1, §2

Assay [3] addresses T1, soluble human IL-6R. Put plainly: biolayer interferometry (Octet RED384), antibody on Protein G biosensor, soluble human IL-6R in solution; antigen concentration not given [d]. The method, then:
as §1, §2

In assay [4] the target is T2, mouse IgA. Put plainly: biolayer interferometry (Octet RED384), antibody on Protein G biosensor, mouse IgA in solution; antigen concentration not given [b]. The procedure:
as §1, §2
On the technique in general: In BLI a coated tip is dipped into the sample, and binding shifts an interference pattern.

For assay [5], the target named is T1, soluble human IL-6R. Put plainly: biolayer interferometry (Octet RED384), antibody on Protein G biosensor, soluble human IL-6R in solution, 120 s association and 120 s dissociation [b]. The procedure:
as §1, §2

Assay [6] has as its target T1, soluble human IL-6R. Put plainly: biolayer interferometry (Octet RED384), antibody on Protein G biosensor, soluble human IL-6R in solution, 120 s association and 120 s dissociation [a]. The method, then:
(§3) The antibody (6RhCEB3(2)_10) obtained in the paragraph (6-2) or an anti-CD3 antibody hCE115HA/L0000 (heavy chain: SEQ ID NO: 42; light chain: SEQ ID NO: 66) was evaluated for its binding activity against soluble human IL-6R and human CD3e (hCD3e) using Octet RED384 (forteBIO). The binding evaluation was conducted using HBS-EP+Buffer (GE Healthcare Japan Corp.) as a buffer.
(§4) After binding of the antibody to Protein G Biosensors (forteBIO), soluble human IL-6R or human CD3e was allowed to interact with the antibody on the biosensor through contact therebetween for 120 seconds, and subsequently contacted with the buffer for 120 seconds to measure the antibody-antigen interaction. Then, the biosensor was regenerated through contact with 10 mmol/L glycine-HCl (pH 1.5). The measurement was conducted at 30° C.
The source holds these as a separate data set.

Assay [7] has as its target T3, human CD3e (hCD3e) extracellular region with FLAG tag (human, UniProt P07766 22-129). Put plainly: biolayer interferometry (Octet RED384), antibody on Protein G biosensor, human CD3e in solution; antigen concentration not given [a]. The method, then:
as §3, §4

Assay [8] has as its target T3, human CD3e (hCD3e) extracellular region …. Put plainly: biolayer interferometry (Octet RED384), antibody on Protein G biosensor, human CD3e in solution, 120 s association and 120 s dissociation [b]. The method, then:
as §3, §4

For assay [9], the target named is T1, soluble human IL-6R. Put plainly: biolayer interferometry (Octet RED384), antibody on Protein G biosensor, soluble human IL-6R in solution; antigen concentration not given [b]. The procedure: as §3, §4
The target of assay [10] is T4, soluble human plexin A1 (human, UniProt Q9UIW2 27-1244).
T4 construct: also called hPlexin A1; human Plexin A1 extracellular region
T4 sequence (Q9UIW2 other isoform, or with tags, fused parts or gaps): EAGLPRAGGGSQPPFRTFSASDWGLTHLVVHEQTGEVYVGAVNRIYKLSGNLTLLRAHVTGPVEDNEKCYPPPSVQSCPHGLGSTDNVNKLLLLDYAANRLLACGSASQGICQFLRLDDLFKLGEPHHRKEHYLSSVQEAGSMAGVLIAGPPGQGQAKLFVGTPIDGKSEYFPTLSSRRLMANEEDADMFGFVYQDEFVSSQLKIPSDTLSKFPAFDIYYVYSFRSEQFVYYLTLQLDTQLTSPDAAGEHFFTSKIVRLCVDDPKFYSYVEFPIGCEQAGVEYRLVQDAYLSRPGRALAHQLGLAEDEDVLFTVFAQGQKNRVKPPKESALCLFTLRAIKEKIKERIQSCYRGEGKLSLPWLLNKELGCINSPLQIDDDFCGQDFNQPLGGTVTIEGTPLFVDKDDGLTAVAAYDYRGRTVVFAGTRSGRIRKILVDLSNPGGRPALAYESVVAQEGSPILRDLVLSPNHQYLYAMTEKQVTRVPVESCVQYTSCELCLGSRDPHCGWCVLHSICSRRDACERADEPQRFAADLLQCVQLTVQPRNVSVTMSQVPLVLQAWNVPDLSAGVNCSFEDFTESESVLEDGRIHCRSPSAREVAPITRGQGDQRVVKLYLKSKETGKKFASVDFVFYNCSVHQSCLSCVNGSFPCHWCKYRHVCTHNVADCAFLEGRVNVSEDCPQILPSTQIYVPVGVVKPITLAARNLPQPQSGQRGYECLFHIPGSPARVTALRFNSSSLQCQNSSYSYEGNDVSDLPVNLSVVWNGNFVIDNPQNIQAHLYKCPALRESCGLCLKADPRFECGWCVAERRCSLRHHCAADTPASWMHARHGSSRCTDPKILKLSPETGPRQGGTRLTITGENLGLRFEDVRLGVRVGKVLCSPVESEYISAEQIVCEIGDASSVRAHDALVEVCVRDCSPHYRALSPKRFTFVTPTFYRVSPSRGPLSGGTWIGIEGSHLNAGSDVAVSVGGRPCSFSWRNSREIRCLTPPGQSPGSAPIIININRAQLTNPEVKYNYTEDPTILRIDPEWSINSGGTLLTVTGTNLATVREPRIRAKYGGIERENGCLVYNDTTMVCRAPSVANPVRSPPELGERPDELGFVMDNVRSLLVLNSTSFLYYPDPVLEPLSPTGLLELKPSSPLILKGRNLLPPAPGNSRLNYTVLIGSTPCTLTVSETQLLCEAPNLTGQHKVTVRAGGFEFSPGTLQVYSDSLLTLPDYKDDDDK
Put plainly: biolayer interferometry (Octet RED384), antibody on Protein G biosensor, soluble human plexin A1 in solution, 120 s association and 120 s dissociation [a]. The method, then:
(§5) Each antibody (PANH-2_52, PANH-2_68, and PANH-3_10) obtained in the paragraph (4-1) or an anti-human IL-6R antibody PF1 antibody was evaluated for its binding activity against soluble human plexin A1 and soluble human IL-6R using Octet RED384 (forteBIO). The binding evaluation was conducted using HBS-EP+Buffer (GE Healthcare Japan Corp.) as a buffer.
(§6) After binding of the antibody to Protein G Biosensors (forteBIO), soluble human plexin A1 or soluble human IL-6R was allowed to interact with the antibody on the biosensor through contact therebetween for 120 seconds, and subsequently contacted with the buffer for 120 seconds to measure the antibody-antigen interaction. Then, the biosensor was regenerated through contact with 10 mmol/L glycine-HCl (pH 1.5). The measurement was conducted at 30° C.

Assay [11] deals with T1, soluble human IL-6R. Put plainly: biolayer interferometry (Octet RED384), antibody on Protein G biosensor, soluble human IL-6R in solution; antigen concentration not given [a]. The method, then:
as §5, §6

Assay [12] deals with T4, soluble human plexin A1. Put plainly: biolayer interferometry (Octet RED384), antibody on Protein G biosensor, soluble human plexin A1 in solution, 120 s association and 120 s dissociation [b]. The procedure:
as §5, §6

In assay [13] the target is T1, soluble human IL-6R. Put plainly: biolayer interferometry (Octet RED384), antibody on Protein G biosensor, soluble human IL-6R in solution; antigen concentration not given [b]. The method, then: as §5, §6
This is another data set of the same source.

In assay [14] the target is T1, soluble human IL-6R. Put plainly: biolayer interferometry (Octet RED384), antibody on Protein G biosensor, soluble human IL-6R in solution; antigen concentration not given [c]. The method, then: as §5, §6
In assay [15] the target is T4, soluble human plexin A1. Put plainly: biolayer interferometry (Octet RED384), antibody on Protein G biosensor, soluble human plexin A1 in solution, 120 s association and 120 s dissociation [c]. The method, then: as §5, §6
The target in assay [16] is T1, soluble human IL-6R. Put plainly: biolayer interferometry (Octet RED384), antibody on Protein G biosensor, soluble human IL-6R in solution; antigen concentration not given [b]. The procedure:
(§7) The binding evaluation was conducted using HBS-EP+Buffer (GE Healthcare Japan Corp.) as a buffer.
(§8) After binding of the antibody to Protein G Biosensors (forteBIO), soluble human IL-6R or soluble human plexin A1 was allowed to interact with the antibody on the biosensor through contact therebetween for 120 seconds, and subsequently contacted with the buffer for 120 seconds to measure the antibody-antigen interaction. Then, the biosensor was regenerated through contact with 10 mmol/L glycine-HCl (pH 1.5). The measurement was conducted at 30° C.
This is another data set of the same source.

The target of assay [17] is T4, soluble human plexin A1. Put plainly: biolayer interferometry (Octet RED384), antibody on Protein G biosensor, soluble human plexin A1 in solution, 120 s association and 120 s dissociation [b]. The method, then: as §7, §8
This is another data set of the same source.

T3 sequence (P07766 other isoform, or with tags, fused parts or gaps): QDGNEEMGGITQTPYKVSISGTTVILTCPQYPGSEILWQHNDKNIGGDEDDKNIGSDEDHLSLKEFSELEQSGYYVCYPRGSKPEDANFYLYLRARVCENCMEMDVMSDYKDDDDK

B1: 6RmIAB3(2)_02 (antibody, human IgG1, lambda, V domains shown)
VH: QVQLQESGPGLVKPSGTLSLTCAVSGGSISSSDWWSWVRQPPGKGLEWIGEIYHGGSTNYNPSLKSRVTISVDRSKNQFSLNLSSVTAADTAVYYCARAPRGSYRIDYWGQGTLVTVSS
VL: SYELTQPPSVSVSPGQSASITCSGDKLGDRFVTWYQQKPGQSPVLVMYQDNQRPSGIPERFSGSNSGNTATLTITGTPAMDEADYYCQTWDAGTGVVFGGGTKLTVLS
notes: IgG with the L chain of the anti-mouse IgA antibody mIANMIgL_095; Culture supernatant was recovered; no purification is described
B1: the binding result was “binds” in the assay with soluble human IL-6R [1] and “no binding” with mouse IgA [2].

B2: mIANMIgL_095 (antibody, human IgG1, lambda, V domains shown)
VH: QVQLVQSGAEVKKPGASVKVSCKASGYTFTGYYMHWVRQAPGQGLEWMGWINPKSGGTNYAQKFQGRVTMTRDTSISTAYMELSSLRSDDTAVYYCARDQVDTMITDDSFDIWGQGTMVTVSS
VL: B1 VL
notes: also called anti-mouse IgA antibody mIANMIgL_095
B2: the binding result with soluble human IL-6R [3] was “no binding”.

B3: 6RmIAB3(2)_06 (antibody, human IgG1, lambda, V domains shown)
VH: QVQLVQSGAEVKKPGASVKVSCKASGYTFATSGISWVRQAPGQGLEWLGWISPYNSRTNSAQKLQGRVNMTTDTSTNTAYLELRSLTSDDTAVYYCARANGDYRNWFDPWGQGTLVTVSS
VL: B1 VL
notes: IgG with the L chain of the anti-mouse IgA antibody mIANMIgL_095; Culture supernatant was recovered
Consider B3, for which the binding result was “no binding” with mouse IgA [4] and “binds” in the assay with soluble human IL-6R [5].

B4: 6RhCEB3(2)_10 (antibody, human IgG1, kappa, V domains shown)
VH: QVQLVQSGAEVKKPGSSVKVSCKASGGTFSSYAISWVRQAPGQGLEWMGGIIPIFGTANYAQKFQGRVTITADESTSTAYMELSSLRSEDTAVYYCARDHYDILTGYPDPTYYYYGMDVWGQGTMVTVSS
VL: DIVMTQSPLSLPVTPGEPASISCRSSQSLVHSNRNTYLHWYQQKPGQAPRLLIYKVSNRFSGVPDRFSGSGSGTDFTLKISRVEAEDVGVYYCGQGTQVPYTFGQGTKLEIKR
notes: IgG with the L chain of the humanized anti-CD3 antibody CE115
Take B4: the binding result is “binds” with soluble human IL-6R [6] and “no binding” in [7].

B5: hCE115HA/L0000 (antibody, human IgG1, kappa, V domains shown)
VH: QVQLVESGGGVVQPGRSLRLSCAASGFTFSNAWMHWVRQAPGKGLEWVAQIKAKSNNYATYYAESVKGRFTISRDDSKNSLYLQMNSLKTEDTAVYYCRYVHYGAYYGVDAWGQGTTVTVSS
VL: B4 VL
notes: also called anti-CD3 antibody hCE115HA/L0000; humanized anti-human CD3 antibody CE115
As to B5, the binding result in assay [8] is recorded as “binds”; with soluble human IL-6R [9] it was “no binding”.

B6: PANH-2_52 (antibody, human IgG1, kappa, V domains shown)
VH: EVQLVQSGGGVVQPGRSLRLSCAASGFTFSSYAMHWVRQAPGKGLEWVAVISYDGSNKYYADSVKGRFTISRDNSKNTLYLQMNSLRAEDTAVYYCARPPMEWLFWDAFDIWGQGTMVTVSS
VL: DIQMTQSPSSLSASVGDSVTITCQASQDISSYLNWYQQKPGKAPELLIYYGSELHSGVPSRFSGSGSGTDFTFTISSLEAEDAATYYCGQGNRLPYTFGQGTKVEIER
notes: IgG with the PF1 L chain
In the case of B6, the binding result was “binds” in the assay with soluble human plexin A1 [10] and “no binding” with soluble human IL-6R [11].

B7: PANH-2_68 (antibody, human IgG1, kappa, V domains shown)
VH: QVQLVQSGAEVKKPGASVKVSCKASGYTFTSYGISWVRQAPGQGLEWMGWISAYNGNTNYAQKLQGRVTMTTDTSTSTAYMELRSLRSDDTAVYYCARAHTKDIWGQGTMVTVSS
VL: B6 VL
notes: IgG with the PF1 L chain
B7: the binding result is reported as “binds” with soluble human plexin A1 [12] and “no binding” in the assay with soluble human IL-6R [13].

B8: PANH-3_10 (antibody, human IgG1, kappa, V domains shown)
VH: QVQLQESGPGLVKPSETLSLTCTVSGGSISSSSYYWGWIRQPPGKGLEWIGSIYYSGSTYYNPSLKSRVTISVDTSKNQFSLKLSSVTAADTAVYYCARDPVQLEHSRYYYYYGMDVWGQGTTVTVSS
VL: B6 VL
notes: IgG with the PF1 L chain
On to B8, for which the binding result with soluble human IL-6R [14] was “no binding”; with soluble human plexin A1 [15], “binds”.

B9: hPANKB2-3#135 (antibody, human IgG1, kappa, V domains shown)
VH: EVQLVQSGAEVKKPGASVKVSCKASGYTFTSYGISWVRQAPGQGLEWMGWISAYNGNTNYAQKLQGRVTMTTDTSTSTAYMELRSLRSDDTAVYYCARGGRGGDAFDIWGQGTMVTVSS
VL: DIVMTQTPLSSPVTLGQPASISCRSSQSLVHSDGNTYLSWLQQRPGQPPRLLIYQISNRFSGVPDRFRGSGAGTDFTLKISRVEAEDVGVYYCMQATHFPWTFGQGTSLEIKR
Take B9: the binding result is listed as “no binding” in the assay with soluble human IL-6R [16] and “binds” with soluble human plexin A1 [17].
